From the DeepSol protein solubility set

Experiment: soluble on expression in E. coli; label from the status in PepcDB or PDB records
For “MTDFSRTFSGTPSAVLPTANRFFRPPLPSAHVARPRLCRRLRDGLDGRLLLIAAPAGFGKSSLAIEFCESLDPRWQSLWLGLSSRESDPGRFLERLLDGLRQYHPTLGEEALGLLKMRQRHQPFAFETWLDDLLDELAPCLDPQRPLLLVLDDYHLAQGAVLDRCLQFLLNHLPEGLVLLVTSRQRPDWHLARLRLSRQLLELSEQDLRLTAEESGALMAASGLELDEDALDALLERSEGWVAGLRLWLLARGDPEEQVSPGVHGADELIRDYLLEEVIERQPPEVQAFLAQTARFERFCAELCDTVREAGDSAAILDHLQQHQVFLVPLDENGQWFRYHHLFSDLLLARPLPDFGPSAGSLHLRACGWFSRHGLLDQAVEQALRAGQPDVAASLVQNLSEEQLLAEQNIATLLRWKMDLPDSLLASTPRLILLYGWALALACQLDAAEELAGQLARFLPAPDESAQRDLLAQWQALSGVIARGRGDIDKAEAHCREALQDLAGERYGTRLQCLSTLSNLAVTRGDFWQA”, the “soluble on expression in E. coli” value was “not soluble”. With “MTDQRRNVYFFHKQDQETNEQARSLTQLAEEHGFTVVNQHSDANIIASIGGDGTFLQAVRKTNFRDDCLYVGITKKGKAHLYCDFHSDEREKMVDAMTFEQIEVRKYPLIEVTVDQASPFHCLNEVSIRSSIIKTFVMDVLIDDLHFETFRGDGMIISTPTGSTAYNKSVAGAVVDPLLPCMQVSELASLNNNTYRTLGSPFVLSSDRKLTLRVVQDGNEHPIIGLDNEALSTRNVKTIEIKLSNKKIKTVKLKDNSFWEKVKRTFLLEHHHHHH” the “soluble on expression in E. coli” value was “not soluble”. In the case of “MTDSTTLYPVFAEELLPGGGHRSFILKRGELLRLTDLNGNANVSLTLLNAHEKTERLNLPDSLKCQHTAKLSNGHCLYSDMGRVLAAIVTDTCGWSDSIGGVLNAQEVAEKYGQGRYQELRNGFFRNGVDNLLVELGKWGLGLSDLLMTLNLFSRVDVSETGTLHFAPNNSKAGDYIELYAPMDTLVVLTALQHPMDPNPDYVPQPLTLSWMKADASVAEHCRTSRPENERGFINTDRLFALEHHHHHH”, the “soluble on expression in E. coli” value is reported as “soluble”. With “MTDTHAHLDFLEPEELAEAAAHLPKLRAVLTLGVDPGRWEKTLSLAQGNVYAAVGLHPTSAHLLSPRWRRPFRHYARSERVRAIGETGLDYYWTPETRAVQLKALDFQAALAEALGLPLVLHVRSKDGKAEEDLAAWLLLHRPKRAVLHAFSGHPALEAAGLEVGAYFSFAGPLTYRKNAALREAAARLPEDRLLVETDTPFLPPEPFRGKRNRPHYVRFTLEKLAEARGLPFAEAEALTDRNARVCFGWP” the “soluble on expression in E. coli” value was “soluble”. In the case of “MTDTNSQWIEMNLQRQRKMLEDKQKQKRHQSAGSVRTTSTAMSMNSMKDYPTFDNSLPFSISDNSSVSVSMNTPLIPTQDPIAQPRMQSMPRQQPQQVQESLISIGDYPDNDINAKLSKVNLTSCVVSDDEDEDKRSYADSPWNTDVVADRIPSEVLPDYNFIKNNLAKFVEDPAVEHCLYKCSITRQKSGVDKGMFPTYFLHLEEFDTDKRQKIFLLAARKRKKSTTANYLLSTDPTNLSREGEGYCAKVRSNALGTQFTVYDSGQNPKKTTNHAAIRQELAAVIYETNVLGFKGPRKMTIVMPGIEPPTENRPAVRCPVRPIQDKHTLLERYRLNDLDSLKILSNKSPQWNDETQSYVLNFHGRVTQASVKNFQIIHQSSPEYIVMQFGRISDDEFTMDFRYPLSAVQAFGIAMTSFHGKLACE”, the “soluble on expression in E. coli” value is reported as “not soluble”. For “MTDTRVLAVANQKGGVAKTTTVASLGAAMVEKGRRVLLVDLDPQGCLTFSLGQDPDKLPVSVHEVLLGEVEPNAVLVTTMEGMTLLPANIDLAGAEAMLLMRAGREYALKRALAKFSDRFDVVIIDCPPSLGVLTLNGLTAADKAIVPLQCEMLAHRGVGQFLRTVADVQQITNPNLRLLGALPTLYDSRTTHTRDVLLDVADRYDLQVLAPPIPRTVRFAEASASGSSVMAGRKNKGAVAYRELAQALLKHWKTGRPLPTFTVDL”, the “soluble on expression in E. coli” value was “soluble”. With “MTDYDDYEDRSGVVEEELLDFDRAMLDFQAMFPSLSNSHIEYVLRKYDGDVSATINELLYDNTPTTTTSESIPHGGDLTKLRQRRHEINEKLRENQKFLDTVTDVEIARAYEDQQLALLLEHREVNTLISEEKKKKSCSDSSSIQESRRHVKIPGKNSKNSKISVNKAKKLEPRRRSDEDRVPDGPYIGEGEVKSENFAAKIKETLRKASGSRISRLFSAP” the “soluble on expression in E. coli” value was “not soluble”. In the case of “MTEASIKLGTTSDKLEYEVIDKGSNGFLGIGSRDAVIKVKKAEASVEDEIREFLDSVFKAMKLEVTIDIKVDEDNRNVDVELNGPEMGVLIGKRGQTLDSLQYLTNLAINKQSENYYRVKIDTEDYRKRRRETLENLAKNISFKVKRTKRPVSLEPMNPFERRVIHSALQNDRFVETHSEGDEPYRHVVVTLKK”, the “soluble on expression in E. coli” value is reported as “not soluble”. In the case of “MTEHPRAHTAHLRTARLELTPLDPAADARHLHHAYGDEEVMRWWTRPACADPAETERYLTSCAAAPGARLWTIRAPDGTVPGMAGLLGGTDVPGLTWLLRRDSWGHGYATEAAAAVVGHALEDGGLDRVEAWIEAGNRRSLAVAARVGLTERARLAQHYPHRPGPHEMVVLGKARAEEPLTTLAVITELPVRDVAATLRLVEAALGARTAFAIGDPPEFAEAALTPWSAGPRFRLAAVPGPGPVEPVRLHLDAAGTADSLHRRAVDAGARVDGPPVRRPWGRSEFVITLPEGHELTVSAPV”, the “soluble on expression in E. coli” value is reported as “soluble”. With “MTEISPKILETSSEPPPKKKRANFTLEFKNEVIRFAEQTNNCQAQKKYGVARACIQRWRHLKHELAFESEGKQGAKRLGGAGRPLKNVELDEKVEDWIASKNGKISGKDIKEYAKKINGNADFKASNGWLQRFMIRHGLIKARSSSPKTPSTSDGTTDKTLEESLFELINSDEWKNISEGNVSGFLEDFNAENGETSLKVEGNNSTTTESEVKQKPNESSKLPEINIFQQLEMLIKDSNGKEDSVEETETSVNRSPKSY” the “soluble on expression in E. coli” value was “not soluble”. For “MTEKKLLMGNEAIAFGAIEAGVQVVTGYPGTPSTEALETIARHAEKCGVYAEWSSNEKVALETAAGAAYSGAKALVTMKQVGLNVASDPLMSLTYIGVKGALVLLVADDPGPHSSQTEQDTRSFGHFANIPVLDPASPQEAYELTKLAFEISHQFEVPVILRTTTRVSHSSGDVELLNSEPSPVEAFC”, the “soluble on expression in E. coli” value was “not soluble”. For “MTEKLKNSKEVIAYIAECFPKCFTLEGEAKPLKIGIFQDLAERLNEDEKVSKTQLRAALRQYTSSWRYLHGVKPGAVRVDLDGNPCGELEEEHVEHAKATLAESKAKVQARRKEQAQKAREEGKAKAKPAANKKPQQPRRTNKPKVQKPTKPVETRALNADEITVGNAVNVNMGKGNMAATIVEINKDDVRVQLANGLQMVVKAEHLRA”, the “soluble on expression in E. coli” value was “soluble”. With “MTELARLKFYATQPHTCSYLPEEQATTLFLDPSQPMDVQVYADLSDMGFRRSGDHLYRPHCQNCSACVPARIPVNLFVPDRQQKRILKRNADIQVSSAKPVFTQEYFDLYQRYIEQRHADGDMFPPSREQFSTFLVRDLPFSRFYEFRVDQRLLAVAVTDLLPNGLSAVYTFYEPDEERRSLGRYAILWQIGEATRLQLQAVYLGYWIKNCKKMNYKTQYRPIELLTNQRWVTLYLEHHHHHH” the “soluble on expression in E. coli” value was “not soluble”. For “MTELKNDRYLRALLRQPVDVTPVWMMRRAGRYLPEYKATRAQAGDFMSLCKNAELACEVTLQPLRRYPLDAAILFSDILTIPDAMGLGLYFEAGEGPRFTAPVTCKADVEKLPIPDPEGELGYVMNAVRTIRRELKGEVPLIGFSGSPWTLATYMVEGGSSKAFTVIKKMMYADPQALHLLLDKLAKSVTLYLNAQIKAGAQSVMIFDTWGGVLTGRDYQQFSLYYMHKIVDGLLRENDGRRVPVTLFTKGGGQWLEAMAETGCDALGLDWTTDIADARRRVGHKVALQGNMDPSMLYAPPARIEDEVATILAGFGQGEGHVFNLGHGIHQDVPPEHAGAFVEAVHRLSAQYHN”, the “soluble on expression in E. coli” value was “not soluble”. In the case of “MTESEVRKLLRRMKELDSQTAFRAFYDMTYDRLYRIAYYYVKREEWSQEIVLDVFLKLWEQRSSLPEVKSIEDYCFILVKNASLNYLEKENRRTTVSTETLPEPEAQSDSPEESMISEELFAIYVKALDRLPERCREVFIRIREEKQSYAQVAEELGISTKTVDAQLQKATIRLKEAISMVNNDR”, the “soluble on expression in E. coli” value is reported as “not soluble”.
